Test results as given in patent US8076085.

Assays:
Experiment in all cases: inhibition ELISA: serum preincubated with soluble peptide, then preS1 (94-117) coated plate
[1] = target: IgG anti-preS1 (94-117) in serum from a HBeAg+ chronic patient (FIG. 7)
[2] = target: IgG anti-preS1 (94-117) in serum of HBeAg+ patient with acute resolving HB-infection (FIG. 5b)
[3] = target: IgG anti-preS1 (94-117) in serum of HBeAg+ patient with acute resolving HB-infection (FIG. 6a)
[4] = target: IgG anti-preS1 (94-117) in serum of HBeAg+ patient with acute resolving HB-infection (FIG. 6b)
[5] = target: IgG anti-preS1 (94-117) in serum of one HBeAg+ patient with chronic HBV-infection who later spontaneously seroconverted to anti-HBe (FIG. 5a)

Measured: percent inhibition

PASTNRQSGRQPTPISPPLRDSHP [preS1#94-117 peptide (HBV subtypes adw, adw2 and two of three adr subtypes)]
100%: all assays above
